The record followed here is article PMC8298264, “Function of cofactor Akirin2 in the regulation of gene expression in model human neutrophil-like HL60 cells” (Bioscience Reports, 2021).

First the molecules themselves.
B1: sp¦O00160¦MYO1F_HUMAN (protein, UniProt O00160 1-1098, looked up)
Unconventional myosin-If: MGSKERFHWQSHNVKQSGVDDMVLLPQITEDAIAANLRKRFMDDYIFTYIGSVLISVNPFKQMPYFTDREIDLYQGAAQYENPPHIYALTDNMYRNMLIDCENQCVIISGESGAGKTVAAKYIMGYISKVSGGGEKVQHVKDIILQSNPLLEAFGNAKTVRNNNSSRFGKYFEIQFSRGGEPDGGKISNFLLEKSRVVMQNENERNFHIYYQLLEGASQEQRQNLGLMTPDYYYYLNQSDTYQVDGTDDRSDFGETLSAMQVIGIPPSIQQLVLQLVAGILHLGNISFCEDGNYARVESVDLLAFPAYLLGIDSGRLQEKLTSRKMDSRWGGRSESINVTLNVEQAAYTRDALAKGLYARLFDFLVEAINRAMQKPQEEYSIGVLDIYGFEIFQKNGFEQFCINFVNEKLQQIFIELTLKAEQEEYVQEGIRWTPIQYFNNKVVCDLIENKLSPPGIMSVLDDVCATMHATGGGADQTLLQKLQAAVGTHEHFNSWSAGFVIHHYAGKVSYDVSGFCERNRDVLFSDLIELMQTSEQAFLRMLFPEKLDGDKKGRPSTAGSKIKKQANDLVATLMRCTPHYIRCIKPNETKRPRDWEENRVKHQVEYLGLKENIRVRRAGFAYRRQFAKFLQRYAILTPETWPRWRGDERQGVQHLLRAVNMEPDQYQMGSTKVFVKNPESLFLLEEVRERKFDGFARTIQKAWRRHVAVRKYEEMREEASNILLNKKERRRNSINRNFVGDYLGLEERPELRQFLGKRERVDFADSVTKYDRRFKPIKRDLILTPKCVYVIGREKVKKGPEKGQVCEVLKKKVDIQALRGVSLSTRQDDFFILQEDAADSFLESVFKTEFVSLLCKRFEEATRRPLPLTFSDTLQFRVKKEGWGGGGTRSVTFSRGFGDLAVLKVGGRTLTVSVGDGLPKSSKPTRKGMAKGKPRRSSQAPTRAAPAPPRGMDRNGVPPSARGGPLPLEIMSGGGTHRPPRGPPSTSLGASRRPRARPPSEHNTEFLNVPDQGMAGMQRKRSVGQRPVPGVGRPKPQPRTHGPRCRALYQYVGQDVDELSFNVNEVIEILMEDPSGWWKGRLHGQEGLFPGNYVEKI
B2: sp¦P26639¦SYTC_HUMAN (protein, UniProt P26639 1-723, looked up)
Threonine--tRNA ligase 1, …: MFEEKASSPSGKMGGEEKPIGAGEEKQKEGGKKKNKEGSGDGGRAELNPWPEYIYTRLEMYNILKAEHDSILAEKAEKDSKPIKVTLPDGKQVDAESWKTTPYQIACGISQGLADNTVIAKVNNVVWDLDRPLEEDCTLELLKFEDEEAQAVYWHSSAHIMGEAMERVYGGCLCYGPPIENGFYYDMYLEEGGVSSNDFSSLEALCKKIIKEKQAFERLEVKKETLLAMFKYNKFKCRILNEKVNTPTTTVYRCGPLIDLCRGPHVRHTGKIKALKIHKNSSTYWEGKADMETLQRIYGISFPDPKMLKEWEKFQEEAKNRDHRKIGRDQELYFFHELSPGSCFFLPKGAYIYNALIEFIRSEYRKRGFQEVVTPNIFNSRLWMTSGHWQHYSENMFSFEVEKELFALKPMNCPGHCLMFDHRPRSWRELPLRLADFGVLHRNELSGALTGLTRVRRFQQDDAHIFCAMEQIEDEIKGCLDFLRTVYSVFGFSFKLNLSTRPEKFLGDIEVWDQAEKQLENSLNEFGEKWELNSGDGAFYGPKIDIQIKDAIGRYHQCATIQLDFQLPIRFNLTYVSHDGDDKKRPVIVHRAILGSVERMIAILTENYGGKWPFWLSPRQVMVVPVGPTCDEYAQKVRQQFHDAKFMADIDLDPGCTLNKKIRNAQLAQYNFILVVGEKEKISGTVNIRTRDNKVHGERTISETIERLQQLKEFRSKQAEEEF
B3: sp¦O60832¦DKC1_HUMAN (protein, UniProt O60832 2-514, looked up)
H/ACA ribonucleoprotein …: ADAEVIILPKKHKKKKERKSLPEEDVAEIQHAEEFLIKPESKVAKLDTSQWPLLLKNFDKLNVRTTHYTPLACGSNPLKREIGDYIRTGFINLDKPSNPSSHEVVAWIRRILRVEKTGHSGTLDPKVTGCLIVCIERATRLVKSQQSAGKEYVGIVRLHNAIEGGTQLSRALETLTGALFQRPPLIAAVKRQLRVRTIYESKMIEYDPERRLGIFWVSCEAGTYIRTLCVHLGLLLGVGGQMQELRRVRSGVMSEKDHMVTMHDVLDAQWLYDNHKDESYLRRVVYPLEKLLTSHKRLVMKDSAVNAICYGAKIMLPGVLRYEDGIEVNQEIVVITTKGEAICMAIALMTTAVISTCDHGIVAKIKRVIMERDTYPRKWGLGPKASQKKLMIKQGLLDKHGKPTDSTPATWKQEYVDYSESAKKEVVAEVVKAPQVVAEAAKTAKRKRESESESDETPPAAPQLIKKEKKKSKKDKKAKAGLESGAEPGDGDSDTTKKKKKKKKAKEVELVSE
B4: sp¦Q9NPJ3¦ACO13_HUMAN (protein, UniProt Q9NPJ3 1-140, looked up)
Acyl-coenzyme A thioesterase …: MTSMTQSLREVIKAMTKARNFERVLGKITLVSAAPGKVICEMKVEEEHTNAIGTLHGGLTATLVDNISTMALLCTERGAPGVSVDMNITYMSPAKLGEDIVITAHVLKQGKTLAFTSVDLTNKATGKLIAQGRHTKHLGN
B5: sp¦Q52LJ0¦FA98B_HUMAN (protein, UniProt Q52LJ0 1-433, looked up)
Protein FAM98B: MRGPEPGPQPTMEGDVLDTLEALGYKGPLLEEQALTKAAEGGLSSPEFSELCIWLGSQIKSLCNLEESITSAGRDDLESFQLEISGFLKEMACPYSVLISGDIKDRLKKKEDCLKLLLFLSTELQASQILQNKKHKNSQLDKNSEVYQEVQAMFDTLGIPKSTTSDIPHMLNQVESKVKDILSKVQKNHVGKPLLKMDLNSEQAEQLERINDALSCEYECRRRMLMKRLDVTVQSFGWSDRAKVKTDDIARIYQPKRYALSPKTTITMAHLLAAREDLSKIIRTSSGTSREKTACAINKVLMGRVPDRGGRPNEIEPPPPEMPPWQKRQEGGGGRGGWGGGGGGGGRGGGGGGGGRGGWGGGGGGWGGGGGGGGGWGGGGGGGRGGFQGRGDYGGRGGYGGRGGYGGRGYGDPYGGGGGGGGGGGGGGGYRRY
B6: sp¦Q9BVP2¦GNL3_HUMAN (protein, UniProt Q9BVP2 1-549, looked up)
Guanine nucleotide-binding …: MKRPKLKKASKRMTCHKRYKIQKKVREHHRKLRKEAKKRGHKKPRKDPGVPNSAPFKEALLREAELRKQRLEELKQQQKLDRQKELEKKRKLETNPDIKPSNVEPMEKEFGLCKTENKAKSGKQNSKKLYCQELKKVIEASDVVLEVLDARDPLGCRCPQVEEAIVQSGQKKLVLILNKSDLVPKENLESWLNYLKKELPTVVFRASTKPKDKGKITKRVKAKKNAAPFRSEVCFGKEGLWKLLGGFQETCSKAIRVGVIGFPNVGKSSIINSLKQEQMCNVGVSMGLTRSMQVVPLDKQITIIDSPSFIVSPLNSSSALALRSPASIEVVKPMEAASAILSQADARQVVLKYTVPGYRNSLEFFTVLAQRRGMHQKGGIPNVEGAAKLLWSEWTGASLAYYCHPPTSWTPPPYFNESIVVDMKSGFNLEELEKNNAQSIRAIKGPHLANSILFQSSGLTNGIIEEKDIHEELPKRKERKQEEREDDKDSDQETVDEEVDENSSGMFAAEETGEALSEETTAGEQSTRSFILDKIIEEDDAYDFSTDYV
B7: sp¦P54687¦BCAT1_HUMAN (protein, UniProt P54687 1-386, looked up)
Branched-chain-amino-acid …: MKDCSNGCSAECTGEGGSKEVVGTFKAKDLIVTPATILKEKPDPNNLVFGTVFTDHMLTVEWSSEFGWEKPHIKPLQNLSLHPGSSALHYAVELFEGLKAFRGVDNKIRLFQPNLNMDRMYRSAVRATLPVFDKEELLECIQQLVKLDQEWVPYSTSASLYIRPTFIGTEPSLGVKKPTKALLFVLLSPVGPYFSSGTFNPVSLWANPKYVRAWKGGTGDCKMGGNYGSSLFAQCEAVDNGCQQVLWLYGEDHQITEVGTMNLFLYWINEDGEEELATPPLDGIILPGVTRRCILDLAHQWGEFKVSERYLTMDDLTTALEGNRVREMFGSGTACVVCPVSDILYKGETIHIPTMENGPKLASRILSKLTDIQYGREESDWTIVLS
B8: sp¦P50213¦IDH3A_HUMAN (protein, UniProt P50213 28-366, looked up)
Isocitrate dehydrogenase …: TGGVQTVTLIPGDGIGPEISAAVMKIFDAAKAPIQWEERNVTAIQGPGGKWMIPSEAKESMDKNKMGLKGPLKTPIAAGHPSMNLLLRKTFDLYANVRPCVSIEGYKTPYTDVNIVTIRENTEGEYSGIEHVIVDGVVQSIKLITEGASKRIAEFAFEYARNNHRSNVTAVHKANIMRMSDGLFLQKCREVAESCKDIKFNEMYLDTVCLNMVQDPSQFDVLVMPNLYGDILSDLCAGLIGGLGVTPSGNIGANGVAIFESVHGTAPDIAGKDMANPTALLLSAVMMLRHMGLFDHAARIEAACFATIKDGKSLTKDLGGNAKCSDFTEEICRRVKDLD
B9: sp¦O95573¦ACSL3_HUMAN (protein, UniProt O95573 1-720, looked up)
Fatty acid CoA ligase Acsl3: MNNHVSSKPSTMKLKHTINPILLYFIHFLISLYTILTYIPFYFFSESRQEKSNRIKAKPVNSKPDSAYRSVNSLDGLASVLYPGCDTLDKVFTYAKNKFKNKRLLGTREVLNEEDEVQPNGKIFKKVILGQYNWLSYEDVFVRAFNFGNGLQMLGQKPKTNIAIFCETRAEWMIAAQACFMYNFQLVTLYATLGGPAIVHALNETEVTNIITSKELLQTKLKDIVSLVPRLRHIITVDGKPPTWSEFPKGIIVHTMAAVEALGAKASMENQPHSKPLPSDIAVIMYTSGSTGLPKGVMISHSNIIAGITGMAERIPELGEEDVYIGYLPLAHVLELSAELVCLSHGCRIGYSSPQTLADQSSKIKKGSKGDTSMLKPTLMAAVPEIMDRIYKNVMNKVSEMSSFQRNLFILAYNYKMEQISKGRNTPLCDSFVFRKVRSLLGGNIRLLLCGGAPLSATTQRFMNICFCCPVGQGYGLTESAGAGTISEVWDYNTGRVGAPLVCCEIKLKNWEEGGYFNTDKPHPRGEILIGGQSVTMGYYKNEAKTKADFFEDENGQRWLCTGDIGEFEPDGCLKIIDRKKDLVKLQAGEYVSLGKVEAALKNLPLVDNICAYANSYHSYVIGFVVPNQKELTELARKKGLKGTWEELCNSCEMENEVLKVLSEAAISASLEKFEIPVKIRLSPEPWTPETGLVTDAFKLKRKELKTHYQADIERMYGRK

The first experiment relates to human HL60 cells. Nature of the experiment: SWATH-MS proteomics, differential protein representation, akirin2 KO vs WT HL60 cells. Type of experiment: cell-based. The settings on record: SWATH-MS, akirin2 KO vs WT HL60 cells; sheet "Under-represented in KO". A digest of the protocol: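 Proteins from WT and akirin2 KO HL60 cells (n=3 biological replicates) were FASP trypsin-digested and analyzed by SWATH-MS DIA with variable windows against an IDA-derived spectral library. Identifications at 1% global FDR; quantities normalized to total area sums of all detected proteins.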
Take B1: the “Fold Change” value was determined as 0.7701 and the “Log (Fold Change)” value was -0.1134.

In the case of B2, the “Fold Change” value is listed as 0.7727 and the “Log (Fold Change)” value is given as -0.112.

B3: the “Fold Change” value stood at 0.774 and the “Log (Fold Change)” value was -0.1113.

Consider B4, for which the “Fold Change” value is given as 0.7707 and the “Log (Fold Change)” value is given as -0.1131.

In the case of B5, the “Fold Change” value amounted to 0.7848 and the “Log (Fold Change)” value is on record as -0.1053.

For the molecule B6, the “Fold Change” value stood at 0.7833 and the “Log (Fold Change)” value was -0.1061.

As to B7, the “Fold Change” value was determined as 0.7726 and the “Log (Fold Change)” value is -0.112.

On to B8, for which the “Fold Change” value was determined as 0.7755 and the “Log (Fold Change)” value is -0.1104.

The same experiment, now with this note: akirin2 KO vs WT HL60 cells; sheet "Under-represented in KO".
For B9, the “Fold Change” value is listed as 0.3507 and the “Log (Fold Change)” value is recorded as -0.4551.
